Target: the molecule itself
Assay: crystal structure

B1: matrix (M) protein from Lagos bat virus (natural protein)
chain: MNFLRKIVKNCKDEEIPKPGTPSAPPDDDDLWMPPPEYVPLTQIKGKENVRNFCINGEIKICSPNGYSFRILRHILKSFDNVYSGNRRLIGVVKVVIGLVLSASPVPEGMNWVYKLRRTLIFQWAESHGPLEGEELEYSQEITWDDEAEFVSLQIRVSAKQCHIQGRLWCINMNSKACQLWADMGLKTQQSQEDENTSLLLE
notes: also called LBV M; full-length LBV M
binding result: binds
